Assay [1] concerns the target N-terminally His6-tagged Gαo E246K mutant (rat) (UniProt P59215).
Assay [2] deals with N-terminally His6-tagged wild-type Gαo (rat) (UniProt P59215).

Among the data in publication doi:10.1101/2025.09.03.673757 are kGAP (single-turnover GTPase assay, 400 nM Gα, 20 nM RGS16) values, retold here.

For the substance RGS16 domain (domain or fragment), the kGAP (single-turnover GTPase assay, 400 nM Gα, 20 nM RGS16) stood at 1.7 min⁻¹ in assay [1] and 1.6 min⁻¹ in assay [2].
